Values quoted from earlier work as cited in article PMC9020725.

Legend:
[1] = target: ankyrin band 3 binding domain (Homo sapiens) (UniProt P16157)
[2] = target: beta-spectrin repeats 10-13 (Homo sapiens) (UniProt P11277)
Chain of UniProt P11277 (P11277 1275-1688): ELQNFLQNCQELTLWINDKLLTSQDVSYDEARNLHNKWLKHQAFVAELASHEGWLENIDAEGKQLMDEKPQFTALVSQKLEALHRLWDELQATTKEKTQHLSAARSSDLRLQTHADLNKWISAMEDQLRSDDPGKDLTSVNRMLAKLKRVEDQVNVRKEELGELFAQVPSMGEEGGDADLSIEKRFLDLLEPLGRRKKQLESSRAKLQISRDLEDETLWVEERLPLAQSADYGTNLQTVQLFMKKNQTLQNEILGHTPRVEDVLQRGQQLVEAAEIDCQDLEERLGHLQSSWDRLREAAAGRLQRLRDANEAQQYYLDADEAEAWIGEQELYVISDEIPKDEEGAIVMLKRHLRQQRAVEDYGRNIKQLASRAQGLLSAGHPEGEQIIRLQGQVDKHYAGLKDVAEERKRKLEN

Chain of UniProt P16157 (P16157 1-827): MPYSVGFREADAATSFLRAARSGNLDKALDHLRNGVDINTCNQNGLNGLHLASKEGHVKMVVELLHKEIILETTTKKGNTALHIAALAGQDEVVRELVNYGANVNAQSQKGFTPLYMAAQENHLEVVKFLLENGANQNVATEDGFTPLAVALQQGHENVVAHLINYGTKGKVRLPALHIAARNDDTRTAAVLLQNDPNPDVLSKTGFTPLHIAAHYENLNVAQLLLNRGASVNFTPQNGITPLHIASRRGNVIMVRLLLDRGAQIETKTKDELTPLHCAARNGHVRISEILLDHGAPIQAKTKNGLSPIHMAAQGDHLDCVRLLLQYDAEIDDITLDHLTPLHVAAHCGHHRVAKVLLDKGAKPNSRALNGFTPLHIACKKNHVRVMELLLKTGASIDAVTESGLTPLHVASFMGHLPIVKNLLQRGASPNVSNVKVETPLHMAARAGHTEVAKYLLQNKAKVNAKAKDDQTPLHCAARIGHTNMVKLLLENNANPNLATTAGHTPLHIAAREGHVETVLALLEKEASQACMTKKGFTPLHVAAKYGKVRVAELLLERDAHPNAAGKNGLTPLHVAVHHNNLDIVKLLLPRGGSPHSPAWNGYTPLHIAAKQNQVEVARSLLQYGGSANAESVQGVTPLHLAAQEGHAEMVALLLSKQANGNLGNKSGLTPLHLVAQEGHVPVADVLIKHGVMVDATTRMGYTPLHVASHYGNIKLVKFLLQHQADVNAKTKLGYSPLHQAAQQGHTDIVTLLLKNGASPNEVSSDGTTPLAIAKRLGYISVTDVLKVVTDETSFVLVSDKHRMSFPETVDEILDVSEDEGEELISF

KAHRP (from UniProt P09346)
Kd [1]: 1.55 µM
Kd [2]: 50 µM
